Measurements from patent publication US20210388087A1 (Chugai, published 2021).
Positions count from the first letter of the chain named. Names may count otherwise. One block for each binder: values may come before it.

Target: T1, Human CD3eg linker (human)
T1 construct: Single chain: epsilon and gamma subunits of human CD3 joined by a 29-mer linker, Flag-tag at the C-terminus; also called recombinant human CD3
T1 chain: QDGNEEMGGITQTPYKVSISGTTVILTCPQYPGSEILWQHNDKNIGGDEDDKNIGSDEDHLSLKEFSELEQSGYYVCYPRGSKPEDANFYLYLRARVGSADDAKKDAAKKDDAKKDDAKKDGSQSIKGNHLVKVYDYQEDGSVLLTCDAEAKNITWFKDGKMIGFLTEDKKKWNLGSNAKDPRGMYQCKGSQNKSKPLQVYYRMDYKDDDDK
Experiment: Biacore SPR, vs template H183/L072

B1: H183/L072 VH F27S (antibody, name in Kabat numbering, V domains shown)
VH: QVQLVESGGGLVQPGRSLRLSCAASGSTFSNAWMHWVRQAPGKGLEWVAQIKDKGNAYAAYYAPSVKGRFTISRDDSKNSIYLQMNSLKTEDTAVYYCHYVHYASASTVLPAFGVDAWGQGTTVTVSS
VL: DIVMTQSPLSLPVTPGEPASISCQASQELVHMNRNTYLHWYQQKPGQAPRLLIYKVSNRFPGVPDRFSGSGSGTDFTLKISRVEAEDVGVYYCAQGTSVPFTFGQGTKLEIK
fold change of affinity: 0 fold

B4: H183/L072 VH F27Y (antibody, name in Kabat numbering, V domains shown)
VH: B1 VH with S27Y
VL: B1 VL
fold change of affinity: 0 fold

B5: H183/L072 VH F100gM (antibody, name in Kabat numbering, V domains shown)
VH: B1 VH with S27F, F113M
VL: B1 VL
fold change of affinity: 1.4 fold

B6: H183/L072 VH F29Y (antibody, name in Kabat numbering, V domains shown)
VH: B1 VH with S27F, F29Y
VL: B1 VL
fold change of affinity: 0.4 fold

B8: H183/L072 VH G26D (antibody, name in Kabat numbering, V domains shown)
VH: B1 VH with G26D, S27F
VL: B1 VL
fold change of affinity: 0.2 fold

B9: H183/L072 VH F29S (antibody, name in Kabat numbering, V domains shown)
VH: B1 VH with S27F, F29S
VL: B1 VL
fold change of affinity: 0.1 fold

B11: H183/L072 VH F100gP (antibody, name in Kabat numbering, V domains shown)
VH: B1 VH with S27F, F113P
VL: B1 VL
fold change of affinity: 1.8 fold

B12: H183/L072 VH F29W (antibody, name in Kabat numbering, V domains shown)
VH: B1 VH with S27F, F29W
VL: B1 VL
fold change of affinity: 0.5 fold

B13: H183/L072 VH F29R (antibody, name in Kabat numbering, V domains shown)
VH: B1 VH with S27F, F29R
VL: B1 VL
fold change of affinity: 0 fold

B14: H183/L072 VH F29T (antibody, name in Kabat numbering, V domains shown)
VH: B1 VH with S27F, F29T
VL: B1 VL
fold change of affinity: 0.2 fold

B15: H183/L072 VH F29E (antibody, name in Kabat numbering, V domains shown)
VH: B1 VH with S27F, F29E
VL: B1 VL
fold change of affinity: 0.1 fold

B17: H183/L072 VH F29N (antibody, name in Kabat numbering, V domains shown)
VH: B1 VH with S27F, F29N
VL: B1 VL
fold change of affinity: 0 fold

B22: H183/L072 VH F29H (antibody, name in Kabat numbering, V domains shown)
VH: B1 VH with S27F, F29H
VL: B1 VL
fold change of affinity: 0 fold

B23: H183/L072 VH F29D (antibody, name in Kabat numbering, V domains shown)
VH: B1 VH with S27F, F29D
VL: B1 VL
fold change of affinity: 0 fold

B24: H183/L072 VH F29V (antibody, name in Kabat numbering, V domains shown)
VH: B1 VH with S27F, F29V
VL: B1 VL
fold change of affinity: 0 fold

B25: H183/L072 VH F29L (antibody, name in Kabat numbering, V domains shown)
VH: B1 VH with S27F, F29L
VL: B1 VL
fold change of affinity: 0.4 fold

B27: H183/L072 VH F100gA (antibody, name in Kabat numbering, V domains shown)
VH: B1 VH with S27F, F113A
VL: B1 VL
fold change of affinity: 1.7 fold

B28: H183/L072 VH F29A (antibody, name in Kabat numbering, V domains shown)
VH: B1 VH with S27F, F29A
VL: B1 VL
fold change of affinity: 0.2 fold

B29: H183/L072 VH F29I (antibody, name in Kabat numbering, V domains shown)
VH: B1 VH with S27F, F29I
VL: B1 VL
fold change of affinity: 0.3 fold

B31: H183/L072 VH F27V (antibody, name in Kabat numbering, V domains shown)
VH: B1 VH with S27V
VL: B1 VL
fold change of affinity: 0.3 fold

B32: H183/L072 VH F100gI (antibody, name in Kabat numbering, V domains shown)
VH: B1 VH with S27F, F113I
VL: B1 VL
fold change of affinity: 1.2 fold

B34: H183/L072 VH F100gL (antibody, name in Kabat numbering, V domains shown)
VH: B1 VH with S27F, F113L
VL: B1 VL
fold change of affinity: 1.3 fold

B35: H183/L072 VH F29M (antibody, name in Kabat numbering, V domains shown)
VH: B1 VH with S27F, F29M
VL: B1 VL
fold change of affinity: 0.4 fold

B37: H183/L072 VH F29Q (antibody, name in Kabat numbering, V domains shown)
VH: B1 VH with S27F, F29Q
VL: B1 VL
fold change of affinity: 0.2 fold

B39: H183/L072 VH F29P (antibody, name in Kabat numbering, V domains shown)
VH: B1 VH with S27F, F29P
VL: B1 VL
fold change of affinity: 0.2 fold

B40: H183/L072 VH F27W (antibody, name in Kabat numbering, V domains shown)
VH: B1 VH with S27W
VL: B1 VL
fold change of affinity: 0 fold

B41: H183/L072 VH F29G (antibody, name in Kabat numbering, V domains shown)
VH: B1 VH with S27F, F29G
VL: B1 VL
fold change of affinity: 0 fold

B44: H183/L072 VH F27T (antibody, name in Kabat numbering, V domains shown)
VH: B1 VH with S27T
VL: B1 VL
fold change of affinity: 0 fold

B45: H183/L072 VH F29K (antibody, name in Kabat numbering, V domains shown)
VH: B1 VH with S27F, F29K
VL: B1 VL
fold change of affinity: 0.1 fold

Second part, the binder after the results:

fold change of affinity: 0.6 fold
B2: H183/L072 VH G26W (antibody, name in Kabat numbering, V domains shown)
VH: B1 VH with G26W, S27F
VL: B1 VL

fold change of affinity: 0.5 fold
B3: H183/L072 VH G26I (antibody, name in Kabat numbering, V domains shown)
VH: B1 VH with G26I, S27F
VL: B1 VL

fold change of affinity: 0.4 fold
B7: H183/L072 VH G26T (antibody, name in Kabat numbering, V domains shown)
VH: B1 VH with G26T, S27F
VL: B1 VL

fold change of affinity: 0.6 fold
B10: H183/L072 VH G26L (antibody, name in Kabat numbering, V domains shown)
VH: B1 VH with G26L, S27F
VL: B1 VL

fold change of affinity: 0.6 fold
B16: H183/L072 VH G26Y (antibody, name in Kabat numbering, V domains shown)
VH: B1 VH with G26Y, S27F
VL: B1 VL

fold change of affinity: 0 fold
B18: H183/L072 VH G26H (antibody, name in Kabat numbering, V domains shown)
VH: B1 VH with G26H, S27F
VL: B1 VL

fold change of affinity: 0.6 fold
B19: H183/L072 VH G26K (antibody, name in Kabat numbering, V domains shown)
VH: B1 VH with G26K, S27F
VL: B1 VL

fold change of affinity: 0.1 fold
B20: H183/L072 VH G26P (antibody, name in Kabat numbering, V domains shown)
VH: B1 VH with G26P, S27F
VL: B1 VL

fold change of affinity: 0.5 fold
B21: H183/L072 VH G26R (antibody, name in Kabat numbering, V domains shown)
VH: B1 VH with G26R, S27F
VL: B1 VL

fold change of affinity: 0.4 fold
B26: H183/L072 VH G26F (antibody, name in Kabat numbering, V domains shown)
VH: B1 VH with G26F, S27F
VL: B1 VL

fold change of affinity: 0.2 fold
B30: H183/L072 VH G26S (antibody, name in Kabat numbering, V domains shown)
VH: B1 VH with G26S, S27F
VL: B1 VL

fold change of affinity: 0.4 fold
B33: H183/L072 VH G26Q (antibody, name in Kabat numbering, V domains shown)
VH: B1 VH with G26Q, S27F
VL: B1 VL

fold change of affinity: 0.6 fold
B36: H183/L072 VH G26M (antibody, name in Kabat numbering, V domains shown)
VH: B1 VH with G26M, S27F
VL: B1 VL

fold change of affinity: 0.6 fold
B38: H183/L072 VH G26E (antibody, name in Kabat numbering, V domains shown)
VH: B1 VH with G26E, S27F
VL: B1 VL

fold change of affinity: 0.4 fold
B42: H183/L072 VH G26N (antibody, name in Kabat numbering, V domains shown)
VH: B1 VH with G26N, S27F
VL: B1 VL

fold change of affinity: 0 fold
B43: H183/L072 VH G26V (antibody, name in Kabat numbering, V domains shown)
VH: B1 VH with G26V, S27F
VL: B1 VL
